Values of other authors as cited in publication PMC10952613.
“And” between values parts separate entries of the source, which are not always exact repeats. Identical values can stand only once.

Biological target: EGFR (Homo sapiens) (UniProt P00533)

- Kd: < 1 nM and > 10 nM
Substance: EGF (from UniProt P01133)
